Reference: the supplement of paper PMC9732359
± gives the uncertainty stated by the source.

Assay: protein stability index of a GFP-peptide fusion (yeast GPS) (PSI 1-4); higher = more stable; sorted into four equal gates, so the index is relative within each strain
Procedure, shortened: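 Yeast carrying a pooled library were grown to mid-log phase in leucine-free medium. Each library plasmid expresses Cherry and has a tiled 17-residue yeast protein peptide fused downstream of GFP. Cells were sorted into four equal gates by GFP/Cherry ratio, and plasmids from each gate were PCR-amplified, Illumina-sequenced and assigned to strains by barcode. Summing, across gates, the read frequency times the gate number gave each peptide's protein stability index.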

Sequence | protein stability index (doa10∆) | protein stability index (pdr5∆) | protein stability index (san1∆) | protein stability index (ubr1∆)
SVILSVISMFVLPIFTT [YML031W/NDC1] | 1.29 ± 0.045 | 1.5 ± 0.059 | 1.3 ± 0.092 | 1.93 ± 0.043
DMDPLAVSAASVVSMSN [SIR2] | 1.67 ± 0.065 | 2.31 ± 0.12 | 1.71 ± 0.18 | 2.19 ± 0.072
RSVDRAGRKFKSRRCDD [POP4] | 3.1 ± 0.079 | 3.16 ± 0.078 | 3.33 ± 0.071 | 3.18 ± 0.075
VSGDLNPIHVSRHFASY [FAS1] | 2.51 ± 0.12 | 2.88 ± 0.068 | 2.78 ± 0.079 | 2.81 ± 0.062
ACSSSGRETILSNFNAD [SIR3] | 2.39 ± 0.037 | 2.16 ± 0.04 | 2.44 ± 0.045 | 2.75 ± 0.042
LRADKLYEKLKQEIMMS [ISW2] | 1.63 ± 0.14 | 1.38 ± 0.18 | 1.78 ± 0.25 | 1.41 ± 0.15
LSFTPTTVIGIRGSDQA [RPN2] | 1.65 ± 0.089 | 1.61 ± 0.073 | 1.78 ± 0.15 | 1.59 ± 0.062
HLSKSPADRPQGRRNSR [SIR4] | 2.79 ± 0.089 | 2.85 ± 0.067 | 2.75 ± 0.059 | 2.78 ± 0.058
LVTIEGALIHKAGLMTG [SMC1] | 2.99 ± 0.14 | 2.71 ± 0.12 | 2.92 ± 0.13 | 2.95 ± 0.12
INLNVDDDILIIRPILG [SRB4] | 3.42 ± 0.15 | 3.07 ± 0.1 | 3.21 ± 0.059 | 3.21 ± 0.057
HFTEIKLNKVDKNELQQ [SIR3] | 2.86 ± 0.056 | 2.88 ± 0.056 | 3 ± 0.04 | 3.07 ± 0.049
LESYLIVHHPYQSLKQI [SSN8] | 2.33 ± 0.052 | 2.46 ± 0.059 | 2.29 ± 0.053 | 2.38 ± 0.044
ELHKKLVEAAKLLKIPK [YDL116W/NUP84] | 2.57 ± 0.13 | 2.24 ± 0.15 | 2.33 ± 0.22 | 2.49 ± 0.1
LNVIIDQLAVSPEQIDA [YCS4] | 2.19 ± 0.05 | 2.44 ± 0.056 | 2.11 ± 0.064 | 2.11 ± 0.044
VLKTLIEKFEQVPDSLD [RPN6] | 3.16 ± 0.093 | 3.21 ± 0.081 | 3.37 ± 0.06 | 3.21 ± 0.086
YLERIELSFYILYSFKL [YML103C/NUP188] | 1.49 ± 0.057 | 1.37 ± 0.044 | 1.2 ± 0.08 | 1.59 ± 0.037
RILQQLKLDKIIHVLTT [RGR1] | 1.64 ± 0.068 | 1.21 ± 0.053 | 1.72 ± 0.15 | 2.22 ± 0.073
VKKTGENEISSLLAMHK [CDC53] | 2.75 ± 0.3 | 2.54 ± 0.12 | 2.05 ± 0.3 | 2.87 ± 0.25
NNVVINFKDMSHVNKYG [PRP8] | 2.64 ± 0.1 | 2.6 ± 0.079 | 2.75 ± 0.059 | 2.57 ± 0.075

Sequence | protein stability index (doa10∆) | protein stability index (pdr5∆) | protein stability index (san1∆) | protein stability index (ubr1∆)
SIREDILECDLLICIGT [SIR2] | 2.45 ± 0.058 | 2.15 ± 0.058 | 2.78 ± 0.055 | 2.39 ± 0.052
DIPELSFFHQSNMQKSL [RPN3] | 2.56 ± 0.065 | 2.13 ± 0.067 | 2.8 ± 0.068 | 2.87 ± 0.045
PAKPALSFGTATSDNKT [YJL041W/NSP1] | 3.05 ± 0.09 | 3.12 ± 0.072 | 2.93 ± 0.097 | 3.08 ± 0.048
SIWGNGYSGYGNGITNT [SNF5] | 3.26 ± 0.1 | 3.4 ± 0.12 | 3.35 ± 0.084 | 3.34 ± 0.051
ANETDKRPTPPSFTFGG [YOR098C/NUP1] | 3.01 ± 0.042 | 3.18 ± 0.047 | 2.96 ± 0.037 | 3.1 ± 0.033
WVYKTKGDGMTSAVASI [RPN1] | 2.75 ± 0.27 | 3.14 ± 0.19 | 2.57 ± 0.23 | 2.97 ± 0.14
PQQPMVKTKTIELIDYD [RET1] | 2.89 ± 0.14 | 3.18 ± 0.2 | 2.94 ± 0.075 | 2.97 ± 0.058
IREIDVAGGKKALAIFV [RPS7A] | 2.29 ± 0.089 | 1.75 ± 0.11 | 1.49 ± 0.17 | 1.77 ± 0.066
EEKLKANKEKKKAEKAA [RPL24A] | 3.23 ± 0.07 | 3.33 ± 0.11 | 3.28 ± 0.043 | 3.48 ± 0.067
PAAANLDALVDCENFFN [YJL039C/NUP192] | 2.71 ± 0.085 | 2.77 ± 0.08 | 2.64 ± 0.057 | 2.7 ± 0.093
SDFTFPEYYSTARVMGG [DIS3] | 1.57 ± 0.073 | 1.39 ± 0.084 |  | 1.38 ± 0.13
ADCQAELTKTKSSLYSA [YIL149C/MLP2] | 2.6 ± 0.055 | 2.59 ± 0.055 | 2.46 ± 0.069 | 2.23 ± 0.045
FKLSSESVIEQIVKYAR [RPS13] | 2.54 ± 0.1 | 2.97 ± 0.11 | 2.63 ± 0.097 | 2.72 ± 0.043
TVAVMSYSGYDIEDALV [RET1] | 2.7 ± 0.16 | 2.15 ± 0.11 | 1.97 ± 0.16 | 2.83 ± 0.072
ESILQMNQGEGEPEAGN [RPC34] | 3 ± 0.2 | 3.18 ± 0.093 | 3.46 ± 0.26 | 3 ± 0.13
LTEQIRELREVIELPLK [RPT4] | 2.69 ± 0.14 | 3.73 ± 0.27 | 3.12 ± 0.17 | 3.06 ± 0.087
QTAVTCESCSTILCTPT [RPS27A] | 1.93 ± 0.04 | 2.05 ± 0.044 | 1.91 ± 0.056 | 1.82 ± 0.04
GSAINHHRIFDSSAHFK [YMR129W/POM152] | 2.57 ± 0.049 | 2.46 ± 0.062 | 2.64 ± 0.075 | 2.71 ± 0.039
TCRKHTQHKVTQYKAGK [RPL42A] | 3.09 ± 0.14 | 2.85 ± 0.12 | 2.62 ± 0.07 | 2.91 ± 0.088
